# Key:
# [1] = target: T1, human insulin receptor (human, UniProt P06213 28-1382); experiment: FACS, serum-starved CHO-K1 cells expressing human INSR, no insulin
# T1 construct: whole, on cells; Uncomplexed receptor on serum-starved cells (CHOK1 transfectants or IM-9); also called hINSR; INSR
# Experimental: (§1) Twenty five microliter aliquots of cells were plated into 96 well plates, mixed with 25 ul of antibody or PPE and incubated on ice for 1 h.
# (§2) The cells were then washed once with FACS buffer and the binding of the antibody was detected by the addition of 25 ul of an appropriate fluorochrome-conjugated secondary antibody. […] After a final 15 min incubation on ice the cells were washed and the pellets resuspended in FACS buffer. The cells were analyzed on a FACSCAN™ (Becton-Dickinson, Milipitas, Calif.) and the data analyzed in both FLOWJO™ (Treestar, Ashland, Oreg.) and Microsoft Excel™.
# [2] = target: T2, mouse insulin receptor (mouse, UniProt P15208 28-1372); experiment: FACS, serum-starved CHO-K1 cells expressing mouse INSR, no insulin
# T2 construct: whole, on cells; also called muINSR; mINSR
# [3] = target: T3, human insulin receptor complexed with human insulin (human, UniProt P06213 28-1382; P01308 25-54; P01308 90-110); experiment: FACS, serum-starved CHO-K1 cells expressing human INSR, with insulin
# T3 construct: whole, on cells;mature; also called hINSR-hINS complex; INS/INSR complex
# Experimental: as §1, §2
# [4] = target: T4, mouse insulin receptor complexed with human insulin (mouse; human, UniProt P15208 28-1372; P01308 25-54; P01308 90-110); experiment: FACS, serum-starved CHO-K1 cells expressing mouse INSR, with insulin
# T4 construct: whole, on cells;mature; also called muINSR/hINS complex
# Experimental: as §1, §2
# [5] = target: T3, human insulin receptor complexed with …; experiment: FACS, CHO-K1 human INSR cells, signal with insulin divided by signal without insulin
# Experimental: as §1, §2
# [6] = target: T4, mouse insulin receptor complexed with …; experiment: FACS, CHO-K1 mouse INSR cells, signal with insulin divided by signal without insulin
# [7] = target: T1, human insulin receptor; experiment: FACS, serum-starved CHO-K1 cells expressing human INSR, no insulin [cont'd]
# Experimental: as §1, §2
# [8] = target: T2, mouse insulin receptor; experiment: FACS, serum-starved CHO-K1 cells expressing mouse INSR, no insulin [cont'd]
# Experimental: as §1, §2
# [9] = target: T4, mouse insulin receptor complexed with …; experiment: FACS, serum-starved CHO-K1 cells expressing mouse INSR, with insulin [cont'd]
# Experimental: as §1, §2
# [10] = target: T4, mouse insulin receptor complexed with …; experiment: FACS, CHO-K1 mouse INSR cells, signal with insulin divided by signal without insulin [cont'd]
# Experimental: as §1, §2
Binder,FACS area under log transformed data MFI [1],FACS area under log transformed data MFI [2],FACS area under log transformed data MFI [3],FACS area under log transformed data MFI [4],FACS area under log transformed data MFI ratio (+insulin/-insulin) [5],FACS area under log transformed data MFI ratio (+insulin/-insulin) [6],FACS area under log transformed data MFI [7],FACS area under log transformed data MFI [8],FACS area under log transformed data MFI [9],FACS area under log transformed data MFI ratio (+insulin/-insulin) [10]
"Ab054 (antibody, IgG2, V domains shown, also called XPA.015.197) VH: not shown VL: QSALTQPRSVSESPGKTVTISCTGSGGSIGSNYVQWYQQRPGSAPTTVIFEDNRRPSGVPDRFSGSIHSSSNSASLTISGLKTEDEADYYCQSYVGTIVVFGGGTKVTVL",1130,1030,356,519,0.32,0.51,,,,
"Ab060 (antibody, IgG2, V domains shown, also called XPA.015.207) VH: QMQLVQSGAEVKKPGSSVKVSCKASGGTFSSYAISWVRQAPGQGLEWMGIINPSGGSTSYAQKFQGRVTMTRDRSTSTVYMELSSLTSEDTAVYYCVRDNHGWSFDYWGQGTLVTVSS VL: QAVLTQPASLSASPGESARLTCTLPSDINVRYYNIYWYQQKPGSPPRYLLYYYSDSNKDQGSGVPSRFSGSKDVSTNTGILVISGLQSEDEAEYYCMTWSSNGSGVFGGGTQLTVL",460,210,308,388,0.67,1.85,,,,
"Ab063 (antibody, IgG2, V domains shown, also called XPA.015.212) VH: QVQLQQSGPGLVKPSQTLSLTCAISGDSVSSNSAAWNWIRQSPSRGLEWLGRTYYRSKWYTDYALSVKSRITINPDTSKNQFSLHLNSVTPEDTAVYYCAREGWLGYFDFWGQGTLVTVSS VL: SSELTQPPSVSVAPGKTATITCGGDNIASKSVHWYQQKPGQAPVLVLYDDSVRPSDIPERFSGSNSANTATLTLTRVEAGDEGEYYCQVWDVRSDHPFFGPGTKVTVL",943,1020,674,733,0.71,0.72,,,,
"Ab064 (antibody, IgG2, V domains shown, also called XPA.015.213) VH: QVQLVQSGAEVKKPGESLKISCKGSGFSFPSYWIGWVRQMPGKGLELVGIIYPGDSDIRYSPSFQGQVTISADTSISTVYLQWSSLQTTDTATYYCARGGFNWFDPWGQGTLVTVSS VL: QAVVTQEPSLTVSPGGTVTLTCASSTGAVTSGYYPNWFQQKPGQAPRALIYSTSNKHSWTPARFSGSLLGGKAALTLSGVQPEDEAEYYCLLYYGGAQPWVFGGGTQLTVL",1710,1020,1270,813,0.74,0.8,,,,
"Ab066 (antibody, IgG2, V domains shown, also called XPA.015.215) VH: EVQLVQSGAEVKKPGSSVKVSCKASGGTFSSYAISWVRQAPGQGLEWMGGIIPIFGTANYAQKFQGRVTITADKSTSTAYMELSRLRSDDTAVYYCARDASYGGNSEGFDYWGQGTLVTVSS VL: SSELTQDPAVSVAVGQSVRITCQGDSLKNFYATWYQQRPGQAPLLVIFGKNNRPSGIPDRFSGSSSGNTASLTVTGAQADDEADYYCNSPDSSNKLVVFGGGTKLTVL",1560,1520,1160,1140,0.74,0.76,,,,
"Ab067 (antibody, V domains shown, also called XPA.015.216) VH: EVQLVQSGAEVKKPGSSVKVSCKASGGTFSSYAISWVRQAPGQGLEWMGGIIPIFGTANYAQKFQGRVTITADESTSTAYMELSSLRSEDTAVYYCARASGDYDFWSGYYGAEYFQHWGQGTLVTVSS VL: not shown",1540,1280,1060,786,0.69,0.61,,,,
"Ab068 (antibody, IgG2, V domains shown, also called XPA.015.217) VH: EVQLVQSGAEVKQPGSSVKVSCKASGGSFNSYTFSWVRQAPGQGLEWMGWISAYNGGTNYFANYALKFQGRVTMTTDTSTGTAYMELRSLRSDDTAVYYCARVRDSWSHEDYSYYYYMDVWGKGTTVTVSS VL: DVVMTQTPLSLSVTPGQPASISCKASQSLLYTNGDTYVSWYVQKPGQAPQLLFSDVSSRFFGVPDRFSASGSGTDFTLKISRVEAEDVGVYYCVQAMYLPLVFGQGTKVEIK",1420,803,1030,445,0.72,0.55,,,,
"Ab071 (antibody, IgG2, V domains shown, also called XPA.015.227) VH: EVQLVQSGAEVKKPGESLKISCKGSGYSFTSYWIGWVRQMPGKGLEWMGIIYPGDSDTRYSPSFQGQVTISADKSISTAYLQWSSLKASDTAMYYCARWDAGYSPWGQGTLVTVSS VL: SSELTQDPAVSVALGQTVRITCQGDSLRSYYASWYQQKPGQAPVLVFYGKNNRPSGIPGRFSGSKSGNTASLTITGAQAEDEADYYCNSRDSSGNHWVFGGGTKLTVL",,,,,,,490,818,518,0.63
"Ab081 (antibody, IgG2, V domains shown, Negative modulator; also called XPA.015.247) VH: EVQLVETGGGVVQPGRSLRLSCAASGFTFSSYAMHWVRQAPGKGLEWVAVISYDGSNKYYADSVKGRFTISRDNSKNTLYLQMNSLRAEDTAVYYCARHEWGFGMDVWGQGTTVTVSS VL: DVVMTQSPLSLSVTLGQPASISCRSSLSLVYGDENTYLNWFQQRPGQSPRRLLYKVSDRDSGVPDRFSGSGSGTDFTLKISRVEADDVGVYYCMQGTHWPYTFGQGTKLEIK",,,,,,,,189,125,0.66
"Ab051 (antibody, IgG2, V domains shown, also called XPA.015.194) VH: QVQLVQSGAEVKKPGSSVKVSCKASGGTFSSYAISWVRQAPGQGLEWMGGIIPIFGTANYAQKFQGRVTITADESTSTAYMELSSLRSEDTAVYYCAGKLYSRDYWYFDLWGRGTLVTVSS VL: SSELTQDPAVSVALGQTVRITCQGNSLRSFYATWYQQKPGQAPVLVIYGKNIRPSGIPDRFSGSNSGDTASLTITGTQAEDEADYYCNSRDNNRNHLLFAGGTKVTVL",554,663,378,470,0.68,0.71,,,,
"Ab055 (antibody, IgG2, V domains shown, also called XPA.015.198) VH: QVQLVQSGAEVKKPGSSVKVSCKASGGTFSSYAISWVRQAPGQGLEWMGGIIPIFGTANYAQKFQGRVTITADESTSTAYMELSSLRSEDTAVYYCARGQGWLRFYGMDVWGQGTTVTVSS VL: SYELTQLPSVSVSPGQTARITCSGDALPNKYAYWYQQKSGQAPVLVIYEDTRRPSEIPERFSASSSGTMATLTISGAQVEDEAEYYCYSTDSSGNERVFGGGTKLTVL",1190,1300,759,1050,0.64,0.81,,,,
"Ab056 (antibody, IgG2, V domains shown, also called XPA.015.199) VH: QVQLVQSGSEVKKPGASVKVSCKASGYTFTNSYMHWVRQAPGQGLEWMGIINPSAGTSYAQKFQGRVTMTRDTSTSTVYMELSSLKSEDTAVYYCARDVGWLPGDYWGQGTLVTVSS VL: QSALTQPASVSESPGQSITISCTGTGSDIGTYNLVSWYQHHPGKAPKLMIYEVTKRPSGVSNRFSGSKSGNTASLTISGLQAEDEADYYCSSYTSSSTLYVFGTGTKLTVL",1110,,927,,0.84,,,,,
"Ab058 (antibody, IgG2, V domains shown, also called XPA.015.202) VH: QLQLQQWGAGLLKPSETLSLTCAVYSGSFSGYYYSWIRQSPGRGLEWIGDISHTGSTDYNPSLKTRVTISVDTSKNQFSLNLNSVTAADTAVYYCARDAPKGGSGLYLFDYWGQGTLVTVSS VL: QSVLTQPPSVSGAPGQRVTISCTGSRSNIGADHDVHWYQQIPGRAPKLLIYGNSNRPSGVPDRFSGSRSGTSASLAITGLQAEDEADYYCQSYDNSLSGSVFGGGTKLTVL",1410,812,370,388,0.26,0.48,,,,

# Reference: patent US20160009800A1 (XOMA US, published 2016)
